Measured values reported in the supplement of paper PMC6757056.
± gives the standard deviation of the averaged measurements.

B1: library; a variant is named by its letters at N, in order (parent)
chain: GCUGUCACCGGUGUAUUACCCUAGUGGUCGACCGGUCUGAUGAGUCUNNNNNNAGACGAAACAGC

Legend:
hypoxanthine [1] = variants of: B1; assay: FACS-Seq fitted mean relative fluorescence mCherry/BFP without ligand (log10 relative fluorescence); ligand: hypoxanthine (xanthine aptamer); higher = higher reporter protein expression; settings: HEK293T, ligand present: no
Outline: (§1)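 HEK293T libraries were made by lentiviral transduction with a ribozyme-switch mCherry reporter and an EF1α-BFP marker, enriched, and incubated with or without ligand for 48 h. Cells were sorted into 6 mCherry/BFP bins, and each bin's genomic DNA was PCR-amplified, barcoded and run on MiSeq. Fluorescence was derived by normal fitting of the bin counts. The fitted log10(mCherry/BFP) mean was scaled to five spiked-in control ribozymes.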

hypoxanthine [2] = variants of: B1; assay: normalized RNA/DNA level with ligand (relative to sTRSVctl = 100) (log10 (% of sTRSVctl)); ligand: hypoxanthine (xanthine aptamer); higher = less ribozyme self-cleavage, higher mRNA level; settings: ligand concentration (+) RNA-Seq: 5 mM, HEK293T, reporter: mCherry (pCS4076), ligand present: yes
Experimental: (§2)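 Hammerhead (sTRSV) ribozyme switch libraries with a ligand aptamer grafted on stem I and a randomized N4-6 loop II, cloned into the 3' UTR of mCherry and transiently transfected into HEK293T cells; RNA-Seq 72 h post transfection with ligand added 1 h before transfection; RNA read count / plasmid DNA read count normalized to the non-cleaving sTRSVctl (x100), log10; sequences with >100 DNA reads. FACS-Seq: lentiviral library sorted into 6 bins after 48 h ligand, log-normal fit mean of mCherry/BFP scaled to controls. Printed sequences are partial switch sequences.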

hypoxanthine [3] = variants of: B1; assay: normalized RNA/DNA level without ligand (relative to sTRSVctl = 100) (log10 (% of sTRSVctl)); ligand: hypoxanthine (xanthine aptamer); higher = less ribozyme self-cleavage, higher mRNA level; settings: HEK293T, reporter: mCherry (pCS4076), ligand present: no
Experimental: as §2

hypoxanthine [4] = variants of: B1; assay: FACS-Seq fitted mean relative fluorescence mCherry/BFP with ligand (log10 relative fluorescence); ligand: hypoxanthine (xanthine aptamer); ligand concentration (+) FACS-Seq: 5 mM; higher = higher reporter protein expression; settings: HEK293T, ligand present: yes
Outline: as §1

Variant	FACS-Seq fitted mean (log10) (hypoxanthine [1])	normalized RNA/DNA level with ligand (log10) (hypoxanthine [2])	normalized RNA/DNA level without ligand (log10) (hypoxanthine [3])	FACS-Seq fitted mean (log10) (hypoxanthine [4])
CAGAAC	0.442 ± 0.066	1.884 ± 0.0072	1.73 ± 0.039	0.407 ± 0.016
CAGAAA	0.22 ± 0.05	1.874 ± 0.00091	1.58 ± 0.062	0.32 ± 0.027
AACAGA	0.273 ± 0.058	1.907 ± 0.0091	1.642 ± 0.0026	0.322 ± 0.091
AACAGG	0.1 ± 0.034	1.76 ± 0.042	1.291 ± 0.0056	0.57 ± 0.031
AACAGU	-0.0447 ± 0.045	1.87 ± 0.047	1.54 ± 0.018	0.4214 ± 0.0042
AACGUC	0.221 ± 0.029	2.01 ± 0.052	1.949 ± 0.0078	0.255 ± 0.0059
AACGUA	0.494 ± 0.032	1.86 ± 0.058	1.702 ± 0.0047	0.516 ± 0.1
AACGUG	0.285 ± 0.021	1.817 ± 0.013	1.3 ± 0.041	0.737 ± 0.012
CACGCU	0.785 ± 0.049	1.93 ± 0.034	1.87 ± 0.021	0.774 ± 0.079
GAGAAC	0.417 ± 0.072	1.912 ± 0.0063	1.63 ± 0.038	0.735 ± 0.033
GAGAAA	0.546 ± 0.035	1.88 ± 0.021	1.597 ± 0.015	0.651 ± 0.048
GAGAAG	-0.406 ± 0.0075	1.55 ± 0.017	1.05 ± 0.024	0.342 ± 0.037
GAGAAU	0.4579 ± 0.0037	1.91 ± 0.021	1.67 ± 0.023	0.611 ± 0.05
UACGCA	-0.76 ± 0.081	1.924 ± 0.0096	1.82 ± 0.019	-0.297 ± 0.075
AACCGU	0.798 ± 0.12	1.889 ± 0.0024	1.75 ± 0.057	0.637 ± 0.047
AACCGC	-0.101 ± 0.015	1.916 ± 0.014	1.79 ± 0.036	0.124 ± 0.016
AACCGA	0.422 ± 0.041	1.9477 ± 0.0019	1.72 ± 0.019	0.533 ± 0.044
AACCGG	0.0275 ± 0.00055	1.877 ± 0.011	1.43 ± 0.031	0.526 ± 0.015
